The values that follow come from patent publication US20200199233A1 (Regeneron, published 2020).

“And” between values parts separate entries of the source, which are not always exact repeats. Equal entries are not always repeated.

The target in assay [1] is T1, hCD28.mmh (human).
T1 construct: also called hCD28 with C-term myc-myc-6xHis tag; human CD28 ecto domain (N19-P152) having a myc-myc-his tag
The experiment in a line: SPR (Biacore), 37 C, antibody captured by anti-human Fc, hCD28.mmh injected. (SPR reads the build-up and loss of mass on a sensor chip optically.)
Protocol: (§1) The dissociation of bound hMUC16, hCD28, and mCD28 reagents was monitored for 10 minutes in HBS-ET running buffer. Association (kₐ) and dissociation (kd) rate constants were determined by fitting the real-time binding sensorgrams to a 1:1 binding model with mass transport limitation using Scrubber evaluation software version 2.0c. Binding dissociation equilibrium constants (KD) and dissociative half-lives (t½) were calculated from the kinetic rate constants as:

The target of assay [2] is T2, human CD28 on human T cells (human, UniProt P10747 19-152).
T2 construct: Endogenous CD28 on primary human CD4+ and CD8+ T cells; also called hCD28
The experiment in a line: flow cytometry, human CD8+ T cells. Background: In flow cytometry, cells or beads pass a laser one at a time.
Protocol: (§2) After incubation, the cells were washed twice with cold PBS containing 1% filtered FBS and a PE-conjugated or Alexa647-conjugated anti-human secondary antibody was added to the MUC16 expressing cells or Human/Cyno T cells, respectively, and incubated for an additional 30 minutes. Live/dead dye was added to Human and Cynomolgus T cells incubations. Wells containing no antibody or secondary only were used as a control.
(§3) After incubation with Human or Cynomolgus T cells, cells were washed, and stained with a cocktail of anti-CD2, ant-CD16, anti-CD4, and anti-CD8 antibodies in Brilliant Stain Buffer for an extra 20 min incubation at 4° C. After wash, cells were re-suspended in 200 μL cold PBS containing 1% filtered FBS, gated in a Live/CD2+/CD4+/CD16− or Live/CD2+/CD8+/CD16− gate and analyzed by Flow cytometry on a BD FACS LSR-Fortessa-X20.

The target in assay [3] is T2, human CD28 on human T cells. Put plainly: cell-based or functional assay.
Assay [4] deals with T3, cynomolgus CD28 on cynomolgus T cells (cynomolgus monkey, UniProt Q0PDN3 19-220).
T3 construct: whole, on cells
Put plainly: flow cytometry, cynomolgus CD4+ T cells.
Protocol: as §2, §3

The target in assay [5] is T2, human CD28 on human T cells. Put plainly: cell-based or functional assay. This is another data set of the same source.
Assay [6] deals with T3, cynomolgus CD28 on cynomolgus T cells. The experiment in a line: flow cytometry, cynomolgus CD8+ T cells.
Protocol: as §2, §3
For assay [7], the target named is T2, human CD28 on human T cells. Put plainly: flow cytometry, human CD4+ T cells.
Protocol: as §2, §3
The target in assay [8] is T4, hMUC16.mmh (human).
T4 construct: also called hMUC16 with C-term myc-myc-6xHis tag; human MUC16 membrane proximal domain (P13810-P14451) having a myc-myc-his tag
T4 chain: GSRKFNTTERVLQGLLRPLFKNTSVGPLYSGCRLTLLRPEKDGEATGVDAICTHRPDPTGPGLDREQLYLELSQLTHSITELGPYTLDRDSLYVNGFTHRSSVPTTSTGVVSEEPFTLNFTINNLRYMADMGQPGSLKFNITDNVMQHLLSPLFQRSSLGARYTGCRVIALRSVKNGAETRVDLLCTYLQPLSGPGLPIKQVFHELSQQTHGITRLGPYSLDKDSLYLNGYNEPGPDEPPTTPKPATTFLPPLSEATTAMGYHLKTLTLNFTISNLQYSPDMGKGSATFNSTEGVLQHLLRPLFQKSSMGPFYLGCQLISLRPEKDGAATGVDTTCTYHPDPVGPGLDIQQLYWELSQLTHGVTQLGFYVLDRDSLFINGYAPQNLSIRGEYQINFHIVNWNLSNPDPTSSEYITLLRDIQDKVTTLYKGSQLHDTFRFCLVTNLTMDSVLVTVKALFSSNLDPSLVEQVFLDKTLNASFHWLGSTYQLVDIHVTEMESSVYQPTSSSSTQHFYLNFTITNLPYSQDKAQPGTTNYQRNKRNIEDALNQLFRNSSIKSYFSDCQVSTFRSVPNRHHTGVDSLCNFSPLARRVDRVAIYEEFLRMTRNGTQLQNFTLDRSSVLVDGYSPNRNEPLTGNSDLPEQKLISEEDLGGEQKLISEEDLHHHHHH
Put plainly: SPR (Biacore), 37 C, antibody captured by anti-human Fc, hMUC16.mmh injected.
Protocol: as §1

B1: bs24963D (bispecific antibody, IgG4, V domains shown)
VH 1: QVQLQESGPGLVKPSETLSLTCTVSGGSISSYYWSWIRQPPGKGLEWIGYIYYSGITHYNPSLKSRVTISVDTSKIQFSLKLSSVTAADTAVYYCARWGVRRDYYYYGMDVWGQGTTVTVSS
VH 2: EVQLVESGGGLEQPGRSLRLSCTASGFAFGDHTMSWVRQAPGKGLEWVGFIRSRAYGGTTEYAASVKGRFTISRDDSKSIAYLQMDSLKTEDTAVYYCTSGGYDSSLHYYYYYHGMDVWGRGTTVTVSS
VL: not shown
notes: Two different heavy chains pair with a common light chain; also called REGN5668; anti-MUC16xCD28
Consider B1, for which, in assay [1], the Kd (commonly the concentration at which binding is half-saturated) was determined as 0.165 µM; the T½ is 2.1 min; the koff – broadly, the rate constant with which the complex falls apart – was determined as 0.00538 s⁻¹; the kon (usually the second-order rate constant of association) stood at 32700 M⁻¹ s⁻¹. Also, the 50% effective concentration (EC50) (commonly the concentration needed to bring the measured effect to its halfway point) in assay [2] is 0.253 µM. Also, in assay [3], the “IL-2 release from primary human CD4+ T cells, fold induction, OVCAR3 target cells, 5 nM hIgG4 isotype control” value is 1.33 fold and the “IL-2 release from primary human CD4+ T cells, fold induction, PEO-1 target cells, 5 nM hIgG4 isotype control” value was determined as 1.12 fold. Moreover, the EC50 in assay [4] worked out at 0.203 µM. In addition, in assay [5], the “IL-2 release from primary human CD4+ T cells, EC50, OVCAR3 target cells, 5 nM REGN4018” value was determined as 0.000401 µM; the “IL-2 release from primary human CD4+ T cells, EC50, PEO-1 target cells, 5 nM REGN4018” value came to 0.000996 µM; the “IL-2 release from primary human CD4+ T cells, fold induction, OVCAR3 target cells, 5 nM REGN4018” value came to 5.32 fold; the “IL-2 release from primary human CD4+ T cells, fold induction, PEO-1 target cells, 5 nM REGN4018” value is 10.9 fold. A half-maximal response in assay [6] (EC50) required 0.122 µM. The same molecule came in with an EC50 in assay [7] of 0.261 µM. In assay [8], the equilibrium dissociation constant (Kd) was 0.000933 µM and 0.000912 µM; the T½ is 53.1 min and 28 min; the koff was 0.000412 s⁻¹ and 0.000218 s⁻¹; the kon is 441000 M⁻¹ s⁻¹ and 238000 M⁻¹ s⁻¹.

B2: Parental 2 hCD28 (for bs24963D) (antibody, V domains shown)
VH: B1 VH 1
VL: not shown
As for B2, in assay [3], the “IL-2 release from primary human CD4+ T cells, fold induction, OVCAR3 target cells, 5 nM hIgG4 isotype control” value was found to be 1.12 fold and the “IL-2 release from primary human CD4+ T cells, fold induction, PEO-1 target cells, 5 nM hIgG4 isotype control” value came out at 1.03 fold. Moreover, in assay [5], the “IL-2 release from primary human CD4+ T cells, EC50, PEO-1 target cells, 5 nM REGN4018” value came to 0.000107 µM; the “IL-2 release from primary human CD4+ T cells, fold induction, OVCAR3 target cells, 5 nM REGN4018” value came out at 2.46 fold; the “IL-2 release from primary human CD4+ T cells, fold induction, PEO-1 target cells, 5 nM REGN4018” value was 2.05 fold.

B3: bs32897D (bispecific antibody, V domains shown)
VH 1: EVQLVESGGGLVQPGGSLRLSCAASGFTFSRNNMHWVRQAPGKGLEYVSGISSNGGRTYYADSVKGRFTISRDNSKNTLYLQMGGLRAADMAVYFCTRDDELLSFDYWGQGTLVTVSS
VH 2: QVQLVESGGGLVKPGGSLRLSCAASGFTFRDYSMSWIRQAPGKGLEWVSYVTFFNSAIYYADSVKGRFTISRDNAKNSLYLQMNSLRAEDTAVYYCAREREPIVGGFDYWGQGTLVTVSS
VL: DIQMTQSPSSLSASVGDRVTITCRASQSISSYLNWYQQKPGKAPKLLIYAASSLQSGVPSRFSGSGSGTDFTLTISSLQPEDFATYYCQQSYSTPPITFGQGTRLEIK
notes: also called anti-MUC16xCD28
In turn, B3 gave a 50% effective concentration (EC50) in assay [2] of 7.58 µM. In assay [3], the “IL-2 release from primary human CD4+ T cells, fold induction, OVCAR3 target cells, 5 nM hIgG4 isotype control” value amounted to 1.06 fold and the “IL-2 release from primary human CD4+ T cells, fold induction, PEO-1 target cells, 5 nM hIgG4 isotype control” value was 1.12 fold. Moreover, the EC50 in assay [4] is 5.7 µM. In assay [5], the “IL-2 release from primary human CD4+ T cells, EC50, OVCAR3 target cells, 5 nM REGN4018” value turned out to be 0.000607 µM; the “IL-2 release from primary human CD4+ T cells, fold induction, OVCAR3 target cells, 5 nM REGN4018” value amounted to 5.63 fold; the “IL-2 release from primary human CD4+ T cells, fold induction, PEO-1 target cells, 5 nM REGN4018” value came out at 5.22 fold. The midpoint of the response in assay [6], the EC50, lay at 3.02 µM. The same molecule had an EC50 in assay [7] of 9.16 µM.

B4: Parental 1 hCD28 (for bs32897D) (antibody, V domains shown)
VH: B3 VH 1
VL: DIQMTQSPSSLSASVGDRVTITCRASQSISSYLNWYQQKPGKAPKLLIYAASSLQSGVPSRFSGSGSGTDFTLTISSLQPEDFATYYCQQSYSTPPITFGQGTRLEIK
B4: in assay [3], the “IL-2 release from primary human CD4+ T cells, fold induction, OVCAR3 target cells, 5 nM hIgG4 isotype control” value turned out to be 1.1 fold and the “IL-2 release from primary human CD4+ T cells, fold induction, PEO-1 target cells, 5 nM hIgG4 isotype control” value came out at 1.3 fold. Also, in assay [5], the “IL-2 release from primary human CD4+ T cells, fold induction, OVCAR3 target cells, 5 nM REGN4018” value amounted to 1.58 fold and the “IL-2 release from primary human CD4+ T cells, fold induction, PEO-1 target cells, 5 nM REGN4018” value was determined as 1.42 fold.
